Assay results taken from PMC9785946, “Bioorthogonal Chemistry Approach for the Theranostics of GRPR-Expressing Cancers” (Pharmaceutics, 2022).
Read-outs that look alike come from different tables or passages of the source.

Key:
[1] = Protocol: The octanol–water partition coefficients (Po/w) of the radioconjugates (20 µL, typically 1 to 5 MBq) were determined by the “shake-flask” method, as previously described.
PC3 cells = test: Cellular uptake, internalization and blocking assays in PC3 cells; type: cell-based, human; settings: 37 °C
Protocol: The time-dependent accumulation of ^111In-conjugates in PC3 cells was evaluated according to a previously described procedure. Briefly, PC3 cells were incubated at 37 °C for 5 min to 4 h with about 7.4 kBq of the tested radioconjugates. To assess the surface binding, the cells were treated twice with glycine buffer (50 mM glycine-HCl/100 mM NaCl, pH 2.8). Then, the cells were lysed with NaOH 1 M (internalized radioconjugate). The activity in both cell surface-bound and internalized fractions was measured in a γ-counter and reported as a percentage of the total applied radioactivity. The total cellular uptake was calculated by the addition of the activities recovered from the surface binding and internalized fractions. Assays for each time point were performed in quadruplicate, and data were presented as average ± SD of typically three independent experiments.
To assess the specific GRPR-mediated cellular uptake and internalization of radioconjugates (receptor blocking studies), a similar study was performed in which cells were incubated with the [^111In]In-DOTA-Tz-TCO-PEG4-AR for 1, 2 and 4 h, with or without the GRPR agonist Tyr4-Bombesin (0.25 µg/0.5 mL/well).

[2] = Biodistribution of 111In-radioconjugates/radiocomplex in PC3 xenografts-bearing mice; type: in vivo, Balb/c-male nude mice; settings: male, Balb/c nude, mouse, iv, total radioactivity, 1 h p.i.
From the text: (§1) Blood samples were taken by cardiac puncture at sacrifice.

[3] = system: PC3 xenografts-bearing mice; test: as above; type: in vivo, Balb/c-male nude mice
From the text: as §1

in vitro = settings: human, human serum
Protocol: The radiochemical stability of the radioconjugates was evaluated in vitro by the incubation of the four radioconjugates at 37 °C in PBS, in cell culture media (CCM) and human serum (HS) for 24 h, followed by HPLC analysis.

GRPR = system: GRPR; parameters: method as in PMID 22080443, PMID 9437737; settings: literature value for reference peptide; ref [32],[39]; cited from earlier work
[4] = 1 h p.i., blocking (excess of agonist)

With `CC(C)C[C@H](NC(=O)C[C@H](O)[C@H](CC(C)C)NC(=O)[C@H](Cc1c[nH]cn1)NC(=O)CNC(=O)[C@@H](NC(=O)[C@H](C)NC(=O)[C@H](Cc1c[nH]c2ccccc12)NC(=O)[C@H](CCC(N)=O)NC(=O)[C@@H](Cc1ccccc1)NC(=O)CN1CCC(NC(=O)OC2CCCc3c(cnnc3-c3ccc(CNC(=O)CN4CCN(CC(=O)O)CCN(CC(=O)O)CCN(CC(=O)O)CC4)cc3)CC2)CC1)C(C)C)C(N)=O` (some centres unmarked) [[^111In]In-DOTA-Tz-TCO-Pip-AR, metal not drawn] the logP [1] was -1.28 ± 0.01, the “Distribution of cell-associated activity (surface-bound vs internalized)” value (PC3 cells) was “almost all cell-associated activity corresponded to the membrane-bound fraction” and the Maximum cellular uptake (PC3 cells; 5 min to 4 h) was “around 10 % of the total activity applied per million cells”. For the same compound, the tissue uptake at 1 h ([2]; pancreas, read-out: Pancreas uptake) was 2.8 ± 0.5 %ID/g, the tissue uptake at 1 h ([2]; tumor (PC3 xenograft), read-out: Tumor uptake) was 3.2 ± 0.1 %ID/g and the Blood uptake ([3]; 1 h p.i.) was 2. 63 % I.D./g. The Bone uptake ([3]; 1 h p.i.) was 1. 2 % I.D./g, the Excretion ([3]; 1 h p.i.) was 63. % I.D and the Heart uptake ([3]; 1 h p.i.) was 1. 06 % I.D./g. The Intestine uptake ([3]; 1 h p.i.) was 0. 54 % I.D./g, the Kidneys uptake ([3]; 1 h p.i.) was 9. 04 % I.D./g and the Liver uptake ([3]; 1 h p.i.) was 3. 97 % I.D./g. For the same compound, the Lungs uptake ([3]; 1 h p.i.) was 1. 74 % I.D./g, the Muscle uptake ([3]; 1 h p.i.) was 0. 64 % I.D./g and the Pancreas uptake ([3]; 1 h p.i.) was 3. 24 % I.D./g. The Spleen uptake ([3]; 1 h p.i.) was 0. 98 % I.D./g, the Stomach uptake ([3]; 1 h p.i.) was 0. 48 % I.D./g and the Tumor uptake ([3]; 1 h p.i.) was 2. 79 % I.D./g. For the same compound, the Blood uptake [3, 4] was 3. 11 % I.D./g, the Bone uptake [3, 4] was 0. 97 % I.D./g and the Excretion [3, 4] was 60. % I.D. The Heart uptake [3, 4] was 0. 6 % I.D./g, the Intestine uptake [3, 4] was 0. 4 % I.D./g and the Kidneys uptake [3, 4] was 7. 18 % I.D./g. For the same compound, the Liver uptake [3, 4] was 3. 28 % I.D./g, the Lungs uptake [3, 4] was 1. 44 % I.D./g and the Muscle uptake [3, 4] was 0. 63 % I.D./g. For the same compound, the Pancreas uptake [3, 4] was 1. 67 % I.D./g, the Spleen uptake [3, 4] was 0. 74 % I.D./g and the Stomach uptake [3, 4] was 0. 34 % I.D./g. For the same compound, the Tumor uptake [3, 4] was 1. 38 % I.D./g, the Blood uptake ([3]; 2 h p.i.) was 0. 16 % I.D./g and the Bone uptake ([3]; 2 h p.i.) was 0. 13 % I.D./g. For the same compound, the Excretion ([3]; 2 h p.i.) was 91. % I.D, the Heart uptake ([3]; 2 h p.i.) was 0. 08 % I.D./g and the Intestine uptake ([3]; 2 h p.i.) was 0. 09 % I.D./g. For the same compound, the Kidneys uptake ([3]; 2 h p.i.) was 3. 09 % I.D./g, the Liver uptake ([3]; 2 h p.i.) was 1. 02 % I.D./g and the Lungs uptake ([3]; 2 h p.i.) was 0. 18 % I.D./g. The Muscle uptake ([3]; 2 h p.i.) was 0. 05 % I.D./g, the Pancreas uptake ([3]; 2 h p.i.) was 0. 28 % I.D./g and the Spleen uptake ([3]; 2 h p.i.) was 0. 28 % I.D./g. The Stomach uptake ([3]; 2 h p.i.) was 0. 05 % I.D./g and the Tumor uptake ([3]; 2 h p.i.) was 1. 13 % I.D./g.
For `CC(C)C[C@H](NC(=O)C[C@H](O)[C@H](CC(C)C)NC(=O)[C@H](Cc1c[nH]cn1)NC(=O)CNC(=O)[C@@H](NC(=O)[C@H](C)NC(=O)[C@H](Cc1c[nH]c2ccccc12)NC(=O)[C@H](CCC(N)=O)NC(=O)[C@@H](Cc1ccccc1)NC(=O)CCOCCOCCOCCOCCNC(=O)OC1CCCc2c(cnnc2-c2ccc(CNC(=O)CCC(C(=O)O)N3CCN(CC(=O)O)CCN(CC(=O)O)CCN(CC(=O)O)CC3)cc2)CC1)C(C)C)C(N)=O` (some centres unmarked) [[^111In]In-DOTAGA-Tz-TCO-PEG4-AR, metal not drawn], the logP [1] was -1.18 ± 0.05 and the remaining at 24 h (in vitro) was about 70%.
In the case of “D-Phe-Gln-Trp-Ala-Val-Gly-His-Sta-Leu-NH2 [AR]”, the IC50 (GRPR) is given as 2.9 ± 0.6 nM.
